pKd: −log10 of the molar value.

Experiment [1] has as its target phosphorylated SNAP-ADAP fusion protein (ADAP amino acids 570-690) (human) (UniProt O15117). Description: MST; SH2 proteins (only partly purified) serially diluted in 1x PBS with 1.75% (v/v) E. coli extract; fluorescent ADAP at 12 nM; 5 min at RT; Monolith NT.115.
Experiment [2] concerns the target site-specifically biotinylated Fyn SH2 domain (UniProt P06241). Description: supernatant depletion assay (pull-down titration); biotinylated SH2 domains on streptavidin-coated DynaBeads, washed once and serially diluted in 1x PBS; ADAP at 8 nM (PBS with 0.1% E. coli extract), 10 min at RT; unbound ADAP in the supernatant read by in-gel fluorescence; Kd estimated from the plot.

Sequence of phosphorylated SNAP-ADAP fusion protein (ADAP amino acids 570-690) (human) (O15117 570-690): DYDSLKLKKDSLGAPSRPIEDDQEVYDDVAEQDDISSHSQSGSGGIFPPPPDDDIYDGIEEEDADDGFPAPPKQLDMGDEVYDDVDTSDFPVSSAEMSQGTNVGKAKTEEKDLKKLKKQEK
Sequence of site-specifically biotinylated Fyn SH2 domain (P06241 149-246): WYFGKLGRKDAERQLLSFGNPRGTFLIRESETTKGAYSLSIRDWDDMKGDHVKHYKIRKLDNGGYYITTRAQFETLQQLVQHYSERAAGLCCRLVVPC

By pKd is commonly meant the negative decadic logarithm of the Kd, by convention in mol/L. “Fyn SH2 domain without biotin (for MST) (from UniProt P06241 149-246) (domain or fragment)” had a pKd in experiment [1] of 6.00. The substance “Src SH2 domain without biotin (for MST) (from UniProt P12931 151-248) (domain or fragment)” showed a pKd in experiment [1] of 6.00.

Turning to “phosphorylated SNAP-ADAP fusion protein (ADAP amino acids 570-690) (from UniProt O15117 570-690) (domain or fragment)”, the negative-log Kd (pKd) in experiment [2] is 6.52.

Values taken from publication PMC3858276.
